Molecular target: T1, HspB8, Q9UJY1
T1 chain: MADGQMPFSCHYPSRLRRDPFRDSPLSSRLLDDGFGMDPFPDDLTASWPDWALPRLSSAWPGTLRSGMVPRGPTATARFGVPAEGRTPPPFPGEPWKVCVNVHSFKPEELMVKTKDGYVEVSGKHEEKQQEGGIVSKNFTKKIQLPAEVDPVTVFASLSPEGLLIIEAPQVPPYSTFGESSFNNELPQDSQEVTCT
Experiment: SPR; BIACORE X; HspB8 amine-coupled to a CM5 chip (7400 RU); running buffer 10 mM HEPES pH 7.4, 150 mM NaCl, 3 mM EDTA, 0.005% P20; 10 uL/min; Langmuir 1:1 fit
Details: remark: other sources report otherwise

- Ka: 5.2e+06 M⁻¹
- Kd: 190 nM
- koff: 0.00048 s⁻¹
- kon: 2500 M⁻¹ s⁻¹
B1: HspB8, Q9UJY1 1-196 (natural protein)
chain: MADGQMPFSCHYPSRLRRDPFRDSPLSSRLLDDGFGMDPFPDDLTASWPDWALPRLSSAWPGTLRSGMVPRGPTATARFGVPAEGRTPPPFPGEPWKVCVNVHSFKPEELMVKTKDGYVEVSGKHEEKQQEGGIVSKNFTKKIQLPAEVDPVTVFASLSPEGLLIIEAPQVPPYSTFGESSFNNELPQDSQEVTCT
